Measurements reported in publication PMC10165364, “Pathological variants in TOP3A cause distinct disorders of mitochondrial and nuclear genome stability”.

Molecular target: T1, TOP3A WT (Homo sapiens, UniProt Q13472 16-934)
T1 sequence: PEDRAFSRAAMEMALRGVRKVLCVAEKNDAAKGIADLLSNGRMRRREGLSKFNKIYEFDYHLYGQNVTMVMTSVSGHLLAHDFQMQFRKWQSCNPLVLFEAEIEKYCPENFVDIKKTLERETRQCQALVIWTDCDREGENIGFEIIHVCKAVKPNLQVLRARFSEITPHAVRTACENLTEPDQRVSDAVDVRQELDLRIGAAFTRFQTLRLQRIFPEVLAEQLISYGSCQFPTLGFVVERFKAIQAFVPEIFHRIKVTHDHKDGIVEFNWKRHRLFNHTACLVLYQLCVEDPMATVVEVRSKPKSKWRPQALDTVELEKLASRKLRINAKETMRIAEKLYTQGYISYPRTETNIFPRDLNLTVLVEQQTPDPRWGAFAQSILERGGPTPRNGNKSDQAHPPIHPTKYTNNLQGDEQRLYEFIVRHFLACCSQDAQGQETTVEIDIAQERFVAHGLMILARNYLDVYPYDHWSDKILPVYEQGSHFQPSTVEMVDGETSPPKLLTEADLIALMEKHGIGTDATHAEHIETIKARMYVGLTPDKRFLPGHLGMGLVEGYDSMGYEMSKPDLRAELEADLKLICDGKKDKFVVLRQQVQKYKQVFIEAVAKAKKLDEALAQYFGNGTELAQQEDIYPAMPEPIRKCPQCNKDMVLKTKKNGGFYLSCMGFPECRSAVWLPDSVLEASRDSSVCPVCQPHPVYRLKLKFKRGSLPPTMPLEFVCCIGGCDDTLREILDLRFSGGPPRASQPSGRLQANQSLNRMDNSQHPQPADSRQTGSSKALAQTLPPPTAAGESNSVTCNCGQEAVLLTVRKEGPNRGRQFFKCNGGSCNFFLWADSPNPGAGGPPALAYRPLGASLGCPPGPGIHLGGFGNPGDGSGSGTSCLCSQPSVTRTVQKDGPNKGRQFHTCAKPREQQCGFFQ
Experiment: EMSA; two shifted bands (two TOP3A molecules); 25 mM HEPES pH 7.5, 70 mM NaCl, 100 ug/ml BSA, 1 mM DTT, 10% glycerol; 10 fmol oligo, 0-250 fmol TOP3A in 20 ul; 37 C 15 min, then ice; 8% native PAGE in 0.5x TBE at 4 C
Settings: protein: recombinant; tags: N-terminal TEV-cleavable 6xHis, cleaved; label: 5' 32P; single strand

B1: EMSA substrate 80-mer (ssDNA)
DNA: ACCACATTAACAACATAAAACCCTCATTCACACGAGAAAACACCCTCATGTTCATACACCTATCCCCCATTCTCCTCCTA
B1: binds.
